{"source": "paper PMC12723728", "substrate": "C[S+](CC[C@H](N)C(=O)O)C[C@H]1O[C@@H](n2cnc3c(N)ncnc32)[C@H](O)[C@@H]1O", "assay": "purified protein", "conditions": "co-substrate mGpppAmC RNA 1 μM; 100 nM enzyme; SAM 0.5-6 μM; labelled compound", "data": [{"protein": "CMTR2 (Homo sapiens) (protein) MSKCRKTPVQQLASPASFSPDILADIFELFAKNFSYGKPLNNEWQLPDPSEIFTCDHTELNAFLDLKNSLNEVKNLLSDKKLDEWHEHTAFTNKAGKIISHVRKSVNAELCTQAWCKFHEILCSFPLIPQEAFQNGKLNSLHLCEAPGAFIASLNHYLKSHRFPCHWSWVANTLNPYHEANDDLMMIMDDRLIANTLHWWYFGPDNTGDIMTLKFLTGLQNFISSMATVHLVTADGSFDCQGNPGEQEALVSSLHYCEVVTALTTLGNGGSFVLKMFTMFEHCSINLMYLLNCCFDQVHVFKPATSKAGNSEVYVVCLHYKGREAIHPLLSKMTLNFGTEMKRKALFPHHVIPDSFLKRHEECCVFFHKYQLETISENIRLFECMGKAEQEKLNNLRDCAIQYFMQKFQLKHLSRNNWLVKKSSIGCSTNTKWFGQRNKYFKTYNERKMLEALSWKDKVAKGYFNSWAEEHGVYHPGQSSILEGTASNLECHLWHILEGKKLPKVKCSPFCNGEILKTLNEAIEKSLGGAFNLDSKFRPKQQYSCSCHVFSEELIFSELCSLTECLQDEQVVVPSNQIKCLLVGFSTLRNIKMHIPLEVRLLESAELTTFSCSLLHDGDPTYQRLFLDCLLHSLRELHTGDVMILPVLSCFTRFMAGLIFVLHSCFRFITFVCPTSSDPLRTCAVLLCVGYQDLPNPVFRYLQSVNELLSTLLNSDSPQQVLQFVPMEVLLKGALLDFLWDLNAAIAKRHLHFIIQREREEIINSLQLQN", "values": [{"measurement": "K0.5", "result": "1.3 ± 0.1", "unit": "µM"}, {"measurement": "kcat", "result": "0.000944 ± 0.00011", "unit": "s⁻¹"}]}]}
